These results are taken from US20160194394A1 (GOVERNING COUNCIL OF THE UNIVERSITY OF TORONTO, published 2016).

Where two headings read alike, the source gives them in different places. Bounds are passed on as bounds.

Test [1] addresses T1, recombinant Frizzled receptor 7 (FZD7) cysteine-rich domain (CRD) fused to the Fc region of human IgG (human, UniProt O75084 33-185). Put plainly: competitive ELISA, detected phage-Fab D10. (In general: ELISA stands for enzyme-linked immunosorbent assay.)
For test [2], the target named is T1, recombinant Frizzled receptor 7 (FZD7) …. Put plainly: competitive ELISA, detected phage-Fab A1.
Test [3] shares this target. Put plainly: SPR. A general note: In SPR one partner is held on a chip, and binding of the other changes the refractive index at the surface.
Test [4] has the same target. Put plainly: competitive ELISA, detected phage-Fab G2.
For the next test, the target named is T2, mouse Fzd2-Fc.
T2 construct: also called mFZD2 ECD; Fzd2 CRD-Fc fusion protein (R&D systems); not shown: exact vendor limits of the CRD construct
T2 sequence (chain, as listed by the source limits assumed): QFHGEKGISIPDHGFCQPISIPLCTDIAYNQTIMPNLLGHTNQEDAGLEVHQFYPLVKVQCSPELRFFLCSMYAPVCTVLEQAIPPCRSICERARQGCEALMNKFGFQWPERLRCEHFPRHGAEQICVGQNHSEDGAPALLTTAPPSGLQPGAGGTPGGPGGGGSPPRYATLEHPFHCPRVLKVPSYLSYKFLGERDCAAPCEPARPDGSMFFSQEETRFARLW
Description: SPR.

In test [5] the target is T1, recombinant Frizzled receptor 7 (FZD7) …. Description: SPR. This is another data set of the same source.
The target in another test is T3, human Fzd8-Fc.
T3 construct: also called FZD8 ECD; Fzd8 CRD-Fc fusion protein (R&D systems); not shown: exact vendor limits of the CRD construct
T3 chain: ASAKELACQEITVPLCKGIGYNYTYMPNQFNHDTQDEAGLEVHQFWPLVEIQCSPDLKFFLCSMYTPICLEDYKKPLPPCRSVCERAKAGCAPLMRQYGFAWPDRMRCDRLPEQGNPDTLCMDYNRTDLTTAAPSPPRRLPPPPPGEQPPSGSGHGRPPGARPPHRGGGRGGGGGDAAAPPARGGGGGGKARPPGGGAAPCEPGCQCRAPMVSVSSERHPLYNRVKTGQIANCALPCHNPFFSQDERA
Put plainly: SPR.

The next test addresses T4, human Fzd1-Fc.
T4 construct: also called FZD1 ECD; Fzd1 CRD-Fc fusion protein (R&D systems); not shown: exact vendor limits of the CRD construct
Put plainly: SPR.

A further test has as its target T5, human Fzd5-Fc.
T5 construct: also called FZD5 ECD; Fzd5 CRD-Fc fusion protein (R&D systems); not shown: exact vendor limits of the CRD construct
T5 chain: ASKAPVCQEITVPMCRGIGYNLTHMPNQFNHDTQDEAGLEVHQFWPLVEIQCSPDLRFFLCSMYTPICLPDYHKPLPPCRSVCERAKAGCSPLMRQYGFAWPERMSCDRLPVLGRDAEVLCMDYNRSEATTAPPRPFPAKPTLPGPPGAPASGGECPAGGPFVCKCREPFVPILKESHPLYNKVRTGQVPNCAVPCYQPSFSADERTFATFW
Put plainly: SPR.

For test [6], the target named is T6, FZD7 receptor expressed on cells (full-length) (UniProt O75084 33-574, limits assumed).
T6 construct: whole, on cells; MDA MB 231 cells may carry other Frizzled receptors too; also called full-length FZD7 receptor; endogenous receptor on MDA MB 231 cells
Description: flow cytometry, 200 nM Fab, MDA MB 231. In a few lines:
(§1)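 EDTA-harvested MDA MB 231 cells, either FZD7-overexpressing or with endogenous receptor, were blocked in 2% FBS/PBS and stained with Fab for 30 min on ice. Detection used anti-F(ab′)₂-APC (1:1000, 15 min on ice), then 1% paraformaldehyde fixation and flow cytometry. Values are percent of cells in positive gates.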

Test [7] has as its target T1, recombinant Frizzled receptor 7 (FZD7) …. Description: competitive ELISA, detected phage-Fab H10.
The target is the same in test [8]. Put plainly: competitive ELISA, detected phage-Fab H3.
The target is the same in test [9]. Description: competitive ELISA, detected phage-Fab G6.
Test [10] has the same target. Put plainly: competitive ELISA, detected phage-Fab E8.
Test [11] has as its target T6, FZD7 receptor expressed on cells …. Description: flow cytometry, 200 nM Fab, FZD7 over-expression line (MDA MB 231). In a few lines: as §1
(In flow cytometry, cells or beads pass a laser one at a time.)

Test [12] shares this target. Put plainly: cell-based or functional assay.
The target in test [13] is T1, recombinant Frizzled receptor 7 (FZD7) …. Put plainly: competitive ELISA, detected phage-Fab H1.
Test [14] has the same target. Put plainly: ELISA, 10ug/ml (200nM) Fab. In a few lines:
(§2)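 Plates coated with 2 ug/ml FZD7-Fc or Fc protein were probed with bacterially expressed purified Fabs for 1 h at room temperature in 0.5% BSA/0.05% Tween20/PBS. Bound Fab detected with anti-FLAG-HRP for 45 min, developed with TMB and acid stop, and read as absorbance at 450 nm; n.t. = not tested.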

The target is the same in test [15]. Description: competitive ELISA, detected phage-Fab E4.
Test [16] shares this target. Put plainly: ELISA, 1ug/ml (20nM) Fab. In short, it runs like this: as §2
In test [17] the target is T6, FZD7 receptor expressed on cells …. Put plainly: flow cytometry, 200 nM Fab, FZD7 over-expression line (MDA MB 231) [cont'd]. In short, it runs like this: as §1
A further test concerns the target T7, FZD4 ECD.
T7 construct: also called Fzd4 CRD-Fc fusion protein (R&D systems); not shown: exact vendor limits of the CRD construct
T7 chain: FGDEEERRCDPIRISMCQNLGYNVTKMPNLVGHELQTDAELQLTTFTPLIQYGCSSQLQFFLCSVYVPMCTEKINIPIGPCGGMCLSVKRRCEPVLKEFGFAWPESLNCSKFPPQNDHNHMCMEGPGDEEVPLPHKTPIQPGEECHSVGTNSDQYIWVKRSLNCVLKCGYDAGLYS
Put plainly: SPR.

Test [18] concerns the target T1, recombinant Frizzled receptor 7 (FZD7) …. Put plainly: ELISA, 10ug/ml (200nM) Fab [cont'd]. In a few lines:
as §2

Test [19] shares this target. Put plainly: ELISA, 1ug/ml (20nM) Fab [cont'd]. In short, it runs like this: as §2
Test [20] concerns the target T6, FZD7 receptor expressed on cells …. Description: flow cytometry, 200 nM Fab, MDA MB 231 [cont'd]. In a few lines: as §1

T4 sequence (chain, as listed by the source limits assumed): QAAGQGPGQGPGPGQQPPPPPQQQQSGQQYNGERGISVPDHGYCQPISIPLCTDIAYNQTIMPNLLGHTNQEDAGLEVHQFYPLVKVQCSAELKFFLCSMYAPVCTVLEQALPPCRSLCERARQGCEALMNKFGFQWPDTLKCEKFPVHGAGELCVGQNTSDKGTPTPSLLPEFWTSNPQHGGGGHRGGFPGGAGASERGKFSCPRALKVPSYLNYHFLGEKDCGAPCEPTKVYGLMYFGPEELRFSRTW

B1: Fab H10 (Fab)
chain 1: EVQLVESGGGLVQPGGSLRLSCAASGFNIYYYSMHWVRQAPGKGLEWVASIYSSYSYTSYADSVKGRFTISADTSKNTAYLQMNSLRAEDTAVYYCARSSPGADYGLDYWGQGTLVTVSSASTKGPSVFPLAPSSKSTSGGTAALGCLVKDYFPEPVTVSWNSGALTSGVHTFPAVLQSSGLYSLSSVVTVPSSSLGTQTYICNVNHKPSNTKVDKKVEPKSC
chain 2: DIQMTQSPSSLSASVGDRVTITCRASQSVSSAVAWYQQKPGKAPKLLIYSASSLYSGVPSRFSGSRSGTDFTLTISSLQPEDFATYYCQQWAYGPFTFGQGTKVEIKRTVAAPSVFIFPPSDSQLKSGTASVVCLLNNFYPREAKVQWKVDNALQSGNSQESVTEQDSKDSTYSLSSTLTLSKADYEKHKVYACEVTHQGLSSPVTKSFNRGECGGS
As to B1, the “% of Fab phage in presence of 750 nM Fab” value in test [1] turned out to be 6.8%; in test [2] it was 21.8%; in test [4] it was 7.4%; in test [7], 7.4%; in test [8], 27.7%; in [9] it was 29.1%. Moreover, the “% of Fab phage in presence of 750 nM Fab” value was 7.1% in [10], 53.5% in test [13] and 20.9% in test [15]. Besides, the Kd (usually a measure of binding affinity in units of concentration) in test [3] was 1.03 nM; in the test with mouse Fzd2-Fc it was 0.95 nM; in test [5] it was 1.03 nM; in the test with human Fzd8-Fc it was 2.5 nM; with human Fzd1-Fc, 3.67 nM; with human Fzd5-Fc it was 3.06 nM. For the same molecule, in [3], the koff (in general, a measure of how fast the partners let go of each other) was 0.000548 s⁻¹. For the same molecule, in [3], the kon (in general, the rate constant with which the complex forms) came out at 533000 M⁻¹ s⁻¹. For the same molecule, the results for the “% population within the positive gate” value in test [6] and in [11] were 99% and 93.2%, respectively. Further, the “decrease in Wnt 3a-induced transcriptional activity (TOP-FLASH luciferase reporter in MDA MB 231 cells, 400 nM Fab)” value in [12] was > 70%. In addition, the “OD 450” value in test [14] was 3.22; in [16] it was 3.19.

B2: Fab A1 (Fab)
chain 1: EVQLVESGGGLVQPGGSLRLSCAASGFNISSYYIHWVRQAPGKGLEWVASIYPYYSSTYYADSVKGRFTISADTSKNTAYLQMNSLRAEDTAVYYCARVWYGAMDYWGQGTLVTVSSASTKGPSVFPLAPSSKSTSGGTAALGCLVKDYFPEPVTVSWNSGALTSGVHTFPAVLQSSGLYSLSSVVTVPSSSLGTQTYICNVNHKPSNTKVDKKVEPKSC
chain 2: DIQMTQSPSSLSASVGDRVTITCRASQSVSSAVAWYQQKPGKAPKLLIYSASSLYSGVPSRFSGSRSGTDFTLTISSLQPEDFATYYCQQYYHPITFGQGTKVEIKRTVAAPSVFIFPPSDSQLKSGTASVVCLLNNFYPREAKVQWKVDNALQSGNSQESVTEQDSKDSTYSLSSTLTLSKADYEKHKVYACEVTHQGLSSPVTKSFNRGECGGS
Take B2: the “% of Fab phage in presence of 750 nM Fab” value in [1] is 5%; in [2], 4.2%; in test [4], 4.7%; in test [7] it was 5.2%; in test [8], 15.1%; in test [9], 8.2%. The “% of Fab phage in presence of 750 nM Fab” value in [10] worked out at 6.5%; in test [13], 13.7%; in test [15], 7.3%. Also, the dissociation constant Kd was 2.09 nM in test [3]; 1.75 nM in the test with mouse Fzd2-Fc; 2.09 nM in test [5]; 9.31 nM in the test with human Fzd8-Fc; 1.07 nM with human Fzd1-Fc; 13.3 nM with FZD4 ECD. The same molecule gave a Kd with human Fzd5-Fc of 15.8 nM. For the same molecule, the koff in [3] is 0.000994 s⁻¹. Further, the kon in [3] was 476000 M⁻¹ s⁻¹. The results for the “% population within the positive gate” value in [17] and in test [20] were 93.1% and 98.6%, respectively. In addition, the entries for the “OD 450” value in [18] and in [19] were 3.23 and 3.22, respectively. In [12], the “decrease in Wnt 3a-induced transcriptional activity (TOP-FLASH luciferase reporter in MDA MB 231 cells, 400 nM Fab)” value is > 70%.
